The NTF2 design screens of Basanta et al. (2020)

Assay: protease stability score; higher = more stable; yeast display proteolysis, trypsin and chymotrypsin;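 note: relative to predicted unfolded state with 0 unfolded-like and 1 meaning tenfold more protease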

Row | Sequence | protease stability score
1 | SEDEEAVRRILKKLLQSHETGDFRMFDRMLDPHVRLDVNGREHIGRESVHRVVEELRIEDMRLTDMHSQGNYLDIDGRLDGSVNGKKDTYRVRLVILKVDGRWIIEEMRIG | 1.95
2 | SEDEEAVRRLIRMLVEWESTGDFESVLRLFDPHARYRIDGVDLHGRHAWERLYKEIRINSVRVKRIEMQGDKVHVDSRLRGEIDGRETDLEVEIIIRKVNGRWVIEEVRIH | 2.2
3 | SEDEEDAERLIRELEHAWHTGDEKYLWEMIDPHARFIIGDKEFHGRDLQLRILHRLIKELGVSRFELHIEHFEVIDGRLHTEGRLNVNGRILKTHLILRKIDGRWLIKSDELR | 1.49
4 | SEDEEDARRMVEIWKRSLETGDFKRILELMDPNTKYLFNGREYHGRHFVSRLFTEELERIKGARIEEESLEIQGNKVILHTRLHINGQHFKQITIIMKIDGKWFLESFSVE | 2.01
5 | SEDEEDFERAIKLYETLNATGNEEEYSKMVDPHVKMHFNGVDFHGREKMVEVVHKLGVKHLETKSIRIIGDFLRSRFENDVDGRKIEQEVQMLKINGRWLIKYISFH | 0.706
6 | SEDEEDFERAMKLLMHDIRTGNEESLNRLFDPNVKININGKELWGREKWIEFLERVDHLDVHDMKIRHLDIQGEKVRAEVHIDRRIKIGDKETRVKVDIRMIAVKVNGRWLLREISVE | 2.1
7 | SEDEEDLKRIVELLVRALKTGDEDLIRHLADPHVRLEVGDKEHHGREEYTRWAENFVERIDHVNIHIKRMTTIGNYLQMDVRLEERFDGRRVELRHYLIILKVDGRWVIKEVQIE | 1.25
8 | SEDEEDLRRIFELLMELWLTGDERHMEHLIDPNAKLHYDGVEYHGREDARRLIHRFDVFEDARVRRVRLIDGQVRMDTHFIGRVDGRRIQVDSIIFMRKINGRWVSKEEVYV | 1.34
9 | SEDEEDMKKASETISEEYHTGDEDAHKKLMDPNARMLYGDKDTHGREHWEHVIKRFGFDHVIIKRIEIHVYDGRIDLHMDVRLIVNGQNLEVRLIIIVRKINGRWRIESVNIHIE | 0.061
10 | SEDEEDMTHAIEEIEHFWMTGDWKKMHDLADPHVKTIINGREQHGRRHMIEAIKDSRRRLGVNYIHSVSNKHFDLQGNKVHSDIRIDVDVNGKHIDLELEVDIVKVDGKWQLSHLKIV | 0.931
11 | SEDEEDSKEAFRLVEEILITGNEEEIDDMADPHTRVQIGNKIWHGRELFLDWVREHLRRADVVRDVHLTHESAYDGKVELHMKVVIHYGDKTIDTEMVFVSRKIDGKWITHSITMV | 1.18
12 | SEDEEDVEQWVRIWFDLLLTGDEDSLRKLIDPHARVEVNGVIQIGREEVARFLSQMRVHDSTLRDIKIYDGRVEIDNEEDVEFNGQRKRVKVILISNKFDGRWTNEHEKYE | 0.449
13 | SEDEEEAERFLRMFFELIRTGDERTIERLLDPHVRIDIDGRDIHGRERAQEHVQHWYRHIRIEDDQIKEFHIQGNKVEHHGRRRGSFNGVTYEVTVHETVLKVDGVWYMKEVHVR | 0.891
14 | SEDEEEAHEFLKRLDNAHRTGDEDFVYEQMDPDVRIDINGREWHGRELAREYLSIYGIKVMEVKRVNVYDGRINVDGHVEFNGVRNKTTIIMQKIDGRWRVKSITIK | 1.41
15 | SEDEEEAKRSIELEMRSWRTGDEDAWLRLADPDVKFVIDGREFHGREALEFLQNRFDHIEMREHEVRHVDLQGDKIHMDTRLRMILIYNGVEIEKETRTEIVVKKIDGRWILHQVEYR | 0.724
16 | SEDEEEATHLSRVLIELLKTGDEEMLEHLADPNDRNDFNGRVKHGRELVTKMLRKLMTDLGIDHIEHVTLRRLEVQGEWVKFNFEIIGRVNGRELSFRVRFIMEKVDGKWRLSERHTI | 1.71
17 | SEDEEEERRVEKLWSKALHTGDEEELHRLADPNVLLNFDGVEYIGREEFLKHFRRLVHEARIEFIILKDSKLIDGRLHIHGIDLVTQGDKRIELKSEVIVLKINGRWIIHHIHIH | 0.75
18 | SEDEEEFRRWLEEMVRALITGDEDRLKELFDPHAQVHVNGKERHGRDELVKAFRETLEDFGVKHMRVTSSSVQGDYVIIHIEMHVDGKPIQTDIRVIIVNGKVHKFEVQLH | 1.89
19 | SEDEEEHKEMLRILIHDNRTGDEDSFRDMFDPNVRFEQGEWSAHGRDWAEHVMRRADHVKLDLQTMDTQGDKVILHGRLILLQGEKRIDEKVIFIIRKIDGKWILESVHFH | 1.21
20 | SEDEEEIKKAVEILLKELRTGDEDSFEKNLDPNARVHDENHRSHGREEVTKWFYEFRKKFKNARHTFEHIIVVGDKVINHMRVEIDGVTINSLWFIKKVDGRWVITSIHIN | 2.26
21 | SEDEEEIKTTFENLDRSIRTGDEDHVRKLADPTMRLDWNGQEFHGREWFSKHLSEFVKRADHFEIRLHDLDMVNGKLHIDGQLILIINGRTQILKLHLVFIKVDGRWILDNVQVN | 1.04
22 | SEDEEEISEFTRMHLEDIITGDEDTLRRLVDPNVRIFIDGKHIHGMETYVKRLDENFKHLGVDHVEIRIHQIRLINGRARVDGVLIIEIGDKREERRTFLILLKVNGRWVMEEYRIH | 1.07
23 | SEDEEEKHKFAEIFWHAHLTGDFDTLKRLVDPNVRIRIGDKDLHGREHLLEELRKIKNLTIEERHVDIQGEWMRMEVVHYVNGVHIDTTIHIDVVNGRIRRIVFNIV | 2.47
24 | SEDEEELERELRLWLSLVLTGDEDIIRELADPHARSRVNGQKSHGRENLLQLFREHMEIMGAKVVDIEEYHIQGEKIILIMRVHVGDKEYELRIEIHVFNGRLKEVNLHFK | 1.52
25 | SEDEEELNRVLKELLHAMVTGNEELWSRLVDPNYRVTVGDFRLHGMEEYSRILHEWRVEIREFRITSRTTVDGRIFIDAHFTEEIKQGDKVTFVNTRIRLIMIKVDGRWHVESREIR | 0.484
